The text below walks through data of patent publication US20180186873A1 (CEPHALON, published 2018).

Where a chain is given by its changes, count along the chain named. Where “and” joins values, the source holds several entries; their conditions need not be identical. Identical values can stand only once.

Experiment [1] has as its target T1, recombinant human IL-5 (human, UniProt P05113 20-134). As to the kind of experiment: SPR, purified Ab on Protein A chip, IL-5 analyte, run 3.2. (In general: In SPR one partner is held on a chip, and binding of the other changes the refractive index at the surface.)
In experiment [2] the target is T1, recombinant human IL-5. As to the kind of experiment: SPR, Ab supernatant on Protein A chip, IL-5 analyte, run 3.2, average of 5.
The target of experiment [3] is T2, recombinant human IL-5 (human, UniProt P05113 20-134). Put plainly: SPR Biacore, Ab on Protein A chip, human IL-5 analyte, run 4.1, replicate 1.
The target in experiment [4] is T2, recombinant human IL-5. Put plainly: SPR Biacore, Ab on Protein A chip, human IL-5 analyte, run 4.1, replicate 3.
The target in experiment [5] is T2, recombinant human IL-5. Put plainly: SPR Biacore, Ab on Protein A chip, human IL-5 analyte, run 4.1, average.
Experiment [6] deals with T2, recombinant human IL-5. As to the kind of experiment: SPR Biacore, Ab on Protein A chip, human IL-5 analyte, run 4.1, replicate 5.
In experiment [7] the target is T2, recombinant human IL-5. Put plainly: SPR Biacore, Ab on Protein A chip, human IL-5 analyte, run 4.1, replicate 4.
Experiment [8] addresses T2, recombinant human IL-5. Put plainly: SPR Biacore, purified Ab on Protein A chip, human IL-5 analyte, run 4.1.
The target of experiment [9] is T2, recombinant human IL-5. As to the kind of experiment: SPR Biacore, Ab on Protein A chip, human IL-5 analyte, run 4.1, replicate 2.
For experiment [10], the target named is T3, recombinant human IL-5 (human, UniProt P05113 20-134). Put plainly: Biacore SPR run 5.1.
The target of experiment [11] is T3, recombinant human IL-5. As to the kind of experiment: Biacore SPR run 5.1. The source holds these as a separate data set.
In experiment [12] the target is T3, recombinant human IL-5. As to the kind of experiment: Biacore SPR run 5.1. The source holds these as a separate data set.
The target of experiment [13] is T4, recombinant human IL-5 (human, UniProt P05113 20-134). As to the kind of experiment: SPR.
The target of experiment [14] is T4, recombinant human IL-5. As to the kind of experiment: SPR. The source holds these as a separate data set.
The target in experiment [15] is T4, recombinant human IL-5. As to the kind of experiment: SPR. The source holds these as a separate data set.
In experiment [16] the target is T4, recombinant human IL-5. Put plainly: SPR. This is another data set of the same source.
Experiment [17] concerns the target T4, recombinant human IL-5. As to the kind of experiment: SPR. The source holds these as a separate data set.
For experiment [18], the target named is T4, recombinant human IL-5. Put plainly: SPR. The source holds these as a separate data set.
Experiment [19] has as its target T5, recombinant human IL-5 (human, UniProt P05113 20-134). Put plainly: Biacore SPR, Ab supernatant on Protein A chip.
The target in experiment [20] is T5, recombinant human IL-5. Put plainly: Biacore SPR, purified Ab on Protein A chip.
In experiment [21] the target is T5, recombinant human IL-5. Put plainly: Biacore SPR, Ab supernatant on Protein A chip, average of replicates.
The target of experiment [22] is T4, recombinant human IL-5. As to the kind of experiment: SPR. The source holds these as a separate data set.

B1: 3A5.040 (antibody, human IgG4 S228P, lambda)
heavy: not shown
light: SYVLTQPPSVSVAPGQTARITCGGNNIGSKNVYWYQQKPGQAPVLVVHDDSDRPSGIPERFSGSNSGNTATLTISRVEVGDEADYSCQVWDSSSDHVVFGGGTKLTVLGQPKAAPSVTLFPPSSEELQANKATLVCLISDFYPGAVTVAWKADSSPVKAGVETTTPSKQSNNKYAASSYLSLTPEQWKSHRSYSCQVTHEGSTVEKTVAPTECS
By Kd is commonly meant the free concentration of one partner at which half of the binding sites on the other are occupied at equilibrium, for simple one-to-one binding. The koff is the first-order rate constant of dissociation. What is called kon is the rate constant with which the complex forms. On to B1, for which, in the experiment with recombinant human IL-5 [1], the Kd is 116 pM, the off-rate constant (koff) turned out to be 8.25e-05 s⁻¹ and the on-rate (kon) is 712000 M⁻¹ s⁻¹. For the same molecule, in the experiment with recombinant human IL-5 [2], the Kd turned out to be 131 pM, the koff came to 9.07e-05 s⁻¹ and the kon was determined as 695000 M⁻¹ s⁻¹.

B2: 3A5.040 (antibody, human IgG4 S228P, lambda)
heavy: not shown
light: B1 light
Take B2: the Kd with recombinant human IL-5 [3] amounted to 116 pM; with recombinant human IL-5 [4] it was 109 pM; with recombinant human IL-5 [5] it was 106 pM; with recombinant human IL-5 [6], 93.7 pM; in the experiment with recombinant human IL-5 [7] it was 105 pM; in the experiment with recombinant human IL-5 [8], 103 pM. Further, the Kd in the experiment with recombinant human IL-5 [9] is 104 pM. Also, the dissociation rate constant (koff) in the experiment with recombinant human IL-5 [3] was 0.000116 s⁻¹; with recombinant human IL-5 [4] it was 0.000112 s⁻¹; with recombinant human IL-5 [5], 0.000107 s⁻¹; with recombinant human IL-5 [6], 9.29e-05 s⁻¹; in the experiment with recombinant human IL-5 [7] it was 0.000106 s⁻¹; with recombinant human IL-5 [8], 0.000109 s⁻¹. Also, the off-rate (koff) with recombinant human IL-5 [9] turned out to be 0.000107 s⁻¹. The on-rate constant (kon) is 1e+06 M⁻¹ s⁻¹ with recombinant human IL-5 [3]; 1.03e+06 M⁻¹ s⁻¹ in the experiment with recombinant human IL-5 [4]; 1.01e+06 M⁻¹ s⁻¹ with recombinant human IL-5 [5]; 991000 M⁻¹ s⁻¹ with recombinant human IL-5 [6]; 1.01e+06 M⁻¹ s⁻¹ with recombinant human IL-5 [7]; 1.06e+06 M⁻¹ s⁻¹ in the experiment with recombinant human IL-5 [8]. Moreover, in the experiment with recombinant human IL-5 [9], the kon came to 1.02e+06 M⁻¹ s⁻¹.

B3: 3A5.040 (antibody, human IgG4 S228P, lambda)
heavy: not shown
light: B1 light
Regarding B3, the Kd is 153 pM with recombinant human IL-5 [10]; 186 pM and 175 pM and 187 pM and 177 pM with recombinant human IL-5 [11]; 181 pM with recombinant human IL-5 [12]. In addition, the koff is 0.000108 s⁻¹ in the experiment with recombinant human IL-5 [10]; 0.000122 s⁻¹ and 0.000112 s⁻¹ and 0.000125 s⁻¹ and 0.000117 s⁻¹ with recombinant human IL-5 [11]; 0.000119 s⁻¹ with recombinant human IL-5 [12]. For the same molecule, the kon is 707000 M⁻¹ s⁻¹ with recombinant human IL-5 [10]; 656000 M⁻¹ s⁻¹ and 643000 M⁻¹ s⁻¹ and 667000 M⁻¹ s⁻¹ and 663000 M⁻¹ s⁻¹ with recombinant human IL-5 [11]; 657000 M⁻¹ s⁻¹ in the experiment with recombinant human IL-5 [12].

B4: 3A5.040 (antibody, human IgG4 S228P, lambda)
heavy: not shown
light: B1 light
As for B4, the equilibrium dissociation constant (Kd) with recombinant human IL-5 [13] was 160 pM; with recombinant human IL-5 [14], 148 pM; in the experiment with recombinant human IL-5 [15] it was 139 pM; with recombinant human IL-5 [16], 128 pM; with recombinant human IL-5 [17], 123 pM; with recombinant human IL-5 [18], 143 pM. Besides, the koff in the experiment with recombinant human IL-5 [13] amounted to 0.000115 s⁻¹; with recombinant human IL-5 [14], 0.000106 s⁻¹; with recombinant human IL-5 [15] it was 9.91e-05 s⁻¹; with recombinant human IL-5 [16], 9.21e-05 s⁻¹; in the experiment with recombinant human IL-5 [17], 8.96e-05 s⁻¹; with recombinant human IL-5 [18], 9.95e-05 s⁻¹. The on-rate constant (kon) is 720000 M⁻¹ s⁻¹ with recombinant human IL-5 [13]; 717000 M⁻¹ s⁻¹ in the experiment with recombinant human IL-5 [14]; 715000 M⁻¹ s⁻¹ in the experiment with recombinant human IL-5 [15]; 718000 M⁻¹ s⁻¹ in the experiment with recombinant human IL-5 [16]; 727000 M⁻¹ s⁻¹ in the experiment with recombinant human IL-5 [17]; 696000 M⁻¹ s⁻¹ in the experiment with recombinant human IL-5 [18].

B5: 3A5.040 (antibody, human IgG4 S228P, lambda)
heavy: not shown
light: B1 light
For the molecule B5, in the experiment with recombinant human IL-5 [19], the equilibrium dissociation constant (Kd) is 148 pM and 149 pM; the off-rate constant (koff) is 0.000103 s⁻¹ and 0.000106 s⁻¹; the kon was 696000 M⁻¹ s⁻¹ and 710000 M⁻¹ s⁻¹. For the same molecule, in the experiment with recombinant human IL-5 [20], the dissociation constant Kd amounted to 92 pM, the koff came out at 6.63e-05 s⁻¹ and the kon was determined as 721000 M⁻¹ s⁻¹. In the experiment with recombinant human IL-5 [21], the Kd is 149 pM, the dissociation rate constant (koff) was found to be 0.000105 s⁻¹ and the kon stood at 703000 M⁻¹ s⁻¹.

B6: 3A5.492 (antibody, human IgG4 S228P, lambda, name in Kabat numbering, V domains shown)
VH: QVQLQESGPGLVKPSQTLSLTCTVSGGSISNGGYYWSWIRQHPGKGLEWIGYIYYSGSTYYNPSLKSRVTISVDTSKNQFSLKLSSVTAADTAVYYCAYLGNWFDYWGQGTLVTVSS
VL: SYVLTQPPSVSVAPGQTARITCGGNNIGSKNVYWYQQKPGQAPVLVVHDDSDRPSGIPERFSGSNSGNTATLTISRVEVGDEADYSCQVWDSSSDHVVFGGGTKLTVLG
For B6, in the experiment with recombinant human IL-5 [19], the “% 3A5.040 kd” value is 10% and the equilibrium dissociation constant (Kd) worked out at 3370 pM.

B7: 3A5.494 (antibody, human IgG4 S228P, lambda, name in Kabat numbering, V domains shown)
VH: B6 VH with Y99Q
VL: B6 VL
B7: in the experiment with recombinant human IL-5 [19], the “% 3A5.040 kd” value worked out at 16% and the dissociation constant Kd amounted to 945 pM.

B8: 3A5.495 (antibody, human IgG4 S228P, lambda, name in Kabat numbering, V domains shown)
VH: B6 VH with Y99K
VL: B6 VL
B8: in the experiment with recombinant human IL-5 [22], the “% 3A5.040 kd” value amounted to 34% and the dissociation constant (Kd) is 431 pM.

B9: 3A5.497 (antibody, human IgG4 S228P, lambda, name in Kabat numbering, V domains shown)
VH: B6 VH with Y99W
VL: B6 VL
As to B9, in the experiment with recombinant human IL-5 [22], the “% 3A5.040 kd” value stood at 3% and the Kd was found to be 1750 pM.

B10: 3A5.491 (antibody, human IgG4 S228P, lambda, name in Kabat numbering, V domains shown)
VH: B6 VH with Y99L
VL: B6 VL
Turning to B10, in the experiment with recombinant human IL-5 [19], the “% 3A5.040 kd” value is 13% and the Kd turned out to be 1520 pM.

B11: 3A5.490 (antibody, human IgG4 S228P, lambda, name in Kabat numbering, V domains shown)
VH: B6 VH with Y99A
VL: B6 VL
Regarding B11, the dissociation constant (Kd) with recombinant human IL-5 [19] was determined as 128 pM.

B12: 3A5.481 (antibody, human IgG4 S228P, lambda, name in Kabat numbering, V domains shown)
VH: B6 VH with A98S, Y99S
VL: B6 VL
Consider B12, for which, in the experiment with recombinant human IL-5 [19], the “% 3A5.040 kd” value amounted to 112% and the dissociation constant (Kd) was 130 pM.

B13: 3A5.496 (antibody, human IgG4 S228P, lambda, name in Kabat numbering, V domains shown)
VH: B6 VH with Y99H
VL: B6 VL
Take B13: in the experiment with recombinant human IL-5 [19], the “% 3A5.040 kd” value was determined as 2% and the Kd was 2110 pM.

B14: 3A5.498 (antibody, human IgG4 S228P, lambda, name in Kabat numbering, V domains shown)
VH: B6 VH with Y99P
VL: B6 VL
For the molecule B14, in the experiment with recombinant human IL-5 [22], the “% 3A5.040 kd” value amounted to 85% and the Kd amounted to 263 pM.

B15: 3A5.485 (antibody, human IgG4 S228P, lambda, name in Kabat numbering, V domains shown)
VH: B6 VH with A98Q, Y99S
VL: B6 VL
Take B15: in the experiment with recombinant human IL-5 [19], the “% 3A5.040 kd” value was 105% and the Kd was found to be 154 pM.

B16: 3A5.482 (antibody, human IgG4 S228P, lambda, name in Kabat numbering, V domains shown)
VH: B6 VH with A98L, Y99S
VL: B6 VL
As for B16, in the experiment with recombinant human IL-5 [19], the “% 3A5.040 kd” value was 52% and the Kd was determined as 790 pM.
